Measurements: patent publication US20160264649A1

Legend:
Assay in all cases: cell-based or functional assay
[1] = target: HIV-1 92RW020 Env (HIV-1)
[2] = target: HIV-1 MGRM-A-007 Env (HIV-1)
[3] = target: HIV-1 MGRM-A-013 Env (HIV-1)
[4] = target: HIV-1 92UG001 Env (HIV-1)
[5] = target: HIV-1 92UG046 Env (HIV-1)
[6] = target: HIV-1 93TH305 Env on pseudovirus (HIV-1)
[7] = target: HIV-1 APV-17 Env (HIV-1)
[8] = target: HIV-1 APV_17 Env on pseudovirus (HIV-1)
[9] = target: HIV-1 APV_6 Env on pseudovirus (HIV-1)
[10] = target: HIV-1 CAAN.A2 (Acute) Env on pseudovirus (HIV-1)
[11] = target: HIV-1 JRCSF Env (HIV-1) (UniProt P20871)
[12] = target: HIV-1 MGRM-AE-001 Env (HIV-1)
[13] = target: HIV-1 MGRM-AE-002 Env (HIV-1)
[14] = target: HIV-1 MGRM-AE-006 Env (HIV-1)
[15] = target: HIV-1 MGRM-AG-001 Env (HIV-1)
[16] = target: HIV-1 MGRM-AG-003 Env (HIV-1)
[17] = target: HIV-1 MGRM-AG-013 Env (HIV-1)
[18] = target: HIV-1 MGRM-C-014 Env on pseudovirus (HIV-1)
[19] = target: HIV-1 MGRM-Chronic-B-002 Env on pseudovirus (HIV-1)
[20] = target: HIV-1 MGRM-Chronic-B-008 Env on pseudovirus (HIV-1)
[21] = target: HIV-1 MGRM-Chronic-B-017 Env on pseudovirus (HIV-1)
[22] = target: HIV-1 MGRM-Chronic-B-023 Env on pseudovirus (HIV-1)
[23] = target: HIV-1 MGRM-D-002 Env (HIV-1)
[24] = target: HIV-1 MGRM-D-005 Env (HIV-1)
[25] = target: HIV-1 MGRM-D-013 Env (HIV-1)
[26] = target: HIV-1 MGRM-D-016 Env (HIV-1)
[27] = target: HIV-1 MGRM-D-028 Env (HIV-1)
[28] = target: HIV-1 MGRM-F1-016 Env (HIV-1)
[29] = target: HIV-1 MGRM-G-006 Env (HIV-1)
[30] = target: HIV-1 MGRM-G-019 Env (HIV-1)
[31] = target: HIV-1 MGRM-G-024 Env (HIV-1)
[32] = target: HIV-1 MGRM-G-027 Env (HIV-1)
[33] = target: HIV-1 THR0.18 (Acute) Env on pseudovirus (HIV-1)

For 1496_C09 (PG9) (TCN-109) (antibody), the neutralization IC50 [1] was 0.08 µg/mL, the neutralization IC50 [2] was 0.37 µg/mL and the neutralization IC50 [3] was 0.16 µg/mL. For the same substance, the IC50 (µg/ml), pseudovirus neutralization [4] was 41.8 µg/mL, the IC50 (µg/ml), pseudovirus neutralization [5] was 0.64 µg/mL and the IC50 [6] was 2.08 µg/mL. The neutralization IC50 [7] was 26.4 µg/mL, the IC50 [8] was 14.6 µg/mL and the IC50 [9] was 0.12 µg/mL. The IC50 [10] was 5.67 µg/mL, the neutralization IC50 [11] was less than 2.5 ng/mL and the neutralization IC90 [11] was less than 2.5 ng/mL. For the same substance, the IC50 (µg/ml), pseudovirus neutralization [12] was 2.97 µg/mL, the IC50 (µg/ml), pseudovirus neutralization [13] was 0.04 µg/mL and the IC50 (µg/ml), pseudovirus neutralization [14] was 0.05 µg/mL. It also gave an IC50 (µg/ml), pseudovirus neutralization [15] of 8.83 µg/mL, an IC50 (µg/ml), pseudovirus neutralization [16] of 9.71 µg/mL and an IC50 (µg/ml), pseudovirus neutralization [17] of 0.23 µg/mL. The IC50 [18] was 0.64 µg/mL, the IC50 [19] was 1.41 µg/mL and the IC50 [20] was 6.66 µg/mL. It also gave an IC50 [21] of 0.32 µg/mL, an IC50 [22] of 0.04 µg/mL and an IC50 (µg/ml), pseudovirus neutralization [23] of 0.027 µg/mL. It also gave an IC50 (µg/ml), pseudovirus neutralization [24] of 0.59 µg/mL, an IC50 (µg/ml), pseudovirus neutralization [25] of 0.06 µg/mL and an IC50 (µg/ml), pseudovirus neutralization [26] of 0.1 µg/mL. The IC50 (µg/ml), pseudovirus neutralization [27] was 4.39 µg/mL, the IC50 (pseudovirus neutralization) [28] was 0.58 µg/mL and the IC50 (µg/ml), pseudovirus neutralization [29] was 0.51 µg/mL. The IC50 (µg/ml), pseudovirus neutralization [30] was 0.67 µg/mL, the IC50 (µg/ml), pseudovirus neutralization [31] was 0.07 µg/mL and the IC50 (µg/ml), pseudovirus neutralization [32] was 0.01 µg/mL. The IC50 [33] was 12.4 µg/mL.
